Laboratory results as given in paper PMC11686378.

Molecular target: Replication Protein A (RPA) heterotrimer from Pyrococcus abyssi, wild type (Pyrococcus abyssi)
Assay: BLI; RPA or RPA^ΔWH nucleoprotein filaments on a 3'-TEG-biotin 50-nt ssDNA held on streptavidin sensors; PriSL (1.56-100 nM) or PolD (15.62-1000 nM) in solution; steady-state analysis; 25 °C, buffer E with 0.2 mg/ml BSA

B1: DNA primase PriSL (PriS-PriL heterodimer) from P. abyssi, in solution (complex)
chain 1: MLLREVTKEERKEFYSNEWNAKQIPDFILQNLDKREFGFDHTGEGPSDRKNSYTDVRDLEDYIKATAPYAVYSSVAFYEKPQEMEGWLGAELVFDIDAKDLPLRRCNHEPGKVCPICLNDAKEIARDTLIVLKEELGFEDVHVVYSGRGYHIRVMDGWALSLDSKSRERILSFISASEIEDHSEFRKMLLERRGWFVLNHGYPRVFRLRFGYFILRVKVEHLINFGIRKNIAKRILDNKETIYEEFVRKGILAAFPDGVGIESLAKLFALSTRFSKAYFDGRVTVDLKRILRLPSTLHSKVGLIAKYIGNNERDVMRFNPFKHAVPKFRRKEVKEEYKRFLEENF
chain 2: MLDPFSEKAKELLKEFGSINDFLNSIPRIVDVEEVIERVKIASDRKLLEGFVDIEDIKDLAQFYALLGALSYSPYGLELELVKKANILLYSERIRREKEIRPEEISLRINKAIEFPIDDLKKIERVFGKLPEYTIHLAEFLDLIPGERLSEYYIYNGNVYLRKEDLIKVWMKAFERNIEKSVNMLYEIRDELPGFFREVLGGIKEVAEQEFGKSGEVKAGTLRPDLFPPCVKNALKGVPQGLRNYAITVLLTSFLSYARICPNPPRRNVRVKDCIDDIRIITDEILPLIIEAANRCSPPLFEDQPNEIKNIWYHLGFGYTANPKLEDSGNSTWYFPPNCDKIRANAPQLCTPDKHCKYVRNPLTYYLRRLYLEGRKNASKGGNERGEKRVLQQ
Binder B1 has a Kd of 24 nM.
